From the nanobody polyreactivity screen of Harvey et al. (2022)

Experiment: yeast display, Sf9 membrane polyspecificity reagent, FACS + sequencing; frameworks hold sequencing errors
In short: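 A nanobody's polyreactivity label depends on the gate it was sorted from. Yeast display cells were stained with 10% biotinylated, detergent-solubilized Sf9 membrane reagent for 1 hour at 4 °C, enriched on streptavidin microbeads and sorted by FACS. The low and high (top ~1%) gates were set on anti-HA fluorescence for expression and streptavidin fluorescence for reagent binding.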

Row | Sequence | polyreactivity (PSR sort gate)
1 | QVQLVETGGGLVQAGGSLRLSCAASGRTFYFNTMGWYRQAPGKERELVAAISSGVNTYYADSVKGRFTISRDNAKNTVYLQMNSLKPEDTAVYYCAASARTYVQSGYWGQGTQVTVSS | high polyreactivity
2 | QVQLVESGGGLVQAGGSLRLSCAASGSTFPWYVMGGYRQAPGKERELVAAISLSGGRTYYADSVMGRFTISRDNAKNRVYLQMNSLKPEDTAVYYCAAEFKLVSHTYYYWGQGTQVTVSS | low polyreactivity
3 | QVQIEESGGGLVQAGGSHRLSCAASGRTFGGNAMGRYRQAPRKERELVAAISISGGSNTYYADSVKGRFTISRDTGKNTVYLQMNSLKPEDTAVYFCAARSTVYISSDYWGQGTQVTVSS | low polyreactivity
4 | QVQLVESGGGLVQAGGSLRLSCAASGNIFQGNAMGWYRQAPGKERELVAAITSDGSTYADSVKGRFTISRDNAKNTVYLQLNSLKPEDTAVYYCNADGITSLPVPALDYWGQGTQATVSS | low polyreactivity
5 | QVQLVESGGGLVQAGGSLPLSCAATGRTFSYNAMGSYRQAPAKETELVAAISSGGTTNYADSVKGRFTISRDNAKNTVYLQMNSVKPDDTAVYYCNADRLVWSFTDYGFSQYDYWGQGTQVTVSS | low polyreactivity
6 | QVQLVESGGGLVQAGGSLRLSCAASGSTLYPYDMGWYRPAPGKERELVAAIDSGGSTNYADSVKGRFTISRDNAKNTVYLQMNSLKPEDTAVYYCATEILTSARDTVVYQFYLGYYYWGQGTQVTVSS | low polyreactivity
7 | QVQLVESGGGLVQAGGSLRISCAASGYTFGNYAMGWYRQAPGKERELVAAISWRGARTNYADSVKGRFTISRDNAKNTVYLQMNSLKPEDTAVYYCAAGYYYGYPPRDYWGQGTQVTVSS | high polyreactivity
8 | QVQLVESGGGLVQAGGSLRLICAASGLTFPTYAMAWYRQAPGKERELVAAISRIGGRTYYADSVKGRFTISRDNAKNTVYLQMNSLKPEETAVYYCAADGIKGGVEYDYWGQGTQVTVSS | high polyreactivity
9 | QVQLVESGGGLVQAGGSLRLSCAASGLIFYGYVMGWYRHAPGKERELVAGISRNYGSTYYADSVKGRFTISRDNAKHTVYLQMNSLKPEDTAVYYCAALTFEAWAGEDYWGQGTQVTVTS | low polyreactivity
10 | QVQLVESGGGLVQAGGSLRLSCAASGSTLRYYAMGWYRQAPGKEREWVAAISTGGSTYYADSVKGRFTISRDNAKKTVYLQMHSLKPEDTAVYYCAAEPWANTPGEAGSPFDYWGQGTQVTVSS | low polyreactivity
11 | QVQLQESGGGLVQARGSLRLSCAASGYISHADEMGWYRQAPGKEHELVASFRNGGSTNYADSVKGRFTISRDNAKNTVYLQMNSLKSEDTAVYYCAAWTGQVDIHSYWCQGTQVTVSS | low polyreactivity
12 | QVQLVESGGGLVQAGGSLRLSCAASGYIFAGNAMGWYRQAPGKERELVAAINSDGRTYYADSVRGRFTISRDNAKNSVYLQMNSLKPEDTAVYYCAVVRFYLGDYLVEFDYWGQGTQVTVSS | low polyreactivity
13 | QVQLVESGGGIVQAGGSLRLSCAASYYDMGWYRQAHGKERELVASISSGGSTNYADSVKGRFTISRDNAKNTVYLQMNSLKPEVTAVYYCAAVVADGVWVKIADEYWGQGTQVTVSS | low polyreactivity
14 | QVQLVESGGGLVQAGGSLRLSCAASGRIIGWYAMGRYRQAPGKERELVAAISQDATRTYYADSVKGRFTISRDNAKHTVYLQMNRLKPEDTAVYYCNVVYRYAGWSYDSWGQGTQVTVSS | high polyreactivity
15 | QVQLVESGGGLVQSGGSLRLSCAASGRIFRKYVMAWYRPAPGNERELVATISNRVGSTYYADSVKGRFTISRDKAKNTVYLQMNSLKPEDTAVYYCAAVSSYTAYDYWGQGTQVTVSS | high polyreactivity
16 | QVQLVESGGGILQAGGSLRLSCAASGFTFLGYVMGWYRQSPGKEREIVADITESGGRTYYADSVKGRFTISRDNAKNTVFLQMNSLKPEDTAVYYCAAELSYWGYYYSFDYWGHGTQVTVSS | low polyreactivity
17 | QVQLVESGGGLVQAGGSLRLSCAASGIIFANYTMGWYRKAPGKERELVAAISWSGDSTYYADSVKGRFTISRDNAKNTVYLQMNSLKPEDTAVYYCATVNIGYRVWMNYWGQGTQVTVSS | low polyreactivity
18 | QVQLVESVGGLVQAGGSLRLSCAASGSTFLVYAMGWYRQAPGKERELVAAITQIDGSTYYADSVKGRFTISRDNAKNTVYLQMNSLKPEDTAVYYCAARYFWTYEYDYWGQGTQVTVSS | low polyreactivity
19 | QVQLLESGGGLVQAGGSLRLTCAASGSTFSPNAMGWYRQAPGKERELVAAITYRGANTYYADSVKGRFTISRDNAKITVYLQMNSLKPEDTAVYYCDAEYAYHHVGFGYWGQGTQVTVSS | low polyreactivity
20 | QVQLVESGGGLVQAGGSLRLSCAASGSTSRYYDMGWYRQAPGTERELVAAITWSGGTTYYADSVKGRFTISRDNAKNTVYLQMNSLKPEDTAVYYCAASRRGGLYTRYHYWGQGTQVTVSS | low polyreactivity
21 | QVQLVESGGGLVQAGGSLRLSCAASGSTFPLYAMGWYRQAPGKERDLVAAITSGGGNTYYADSVKGRFTISRDNAKITVYLQMNSLKPEDTAVYSCAAVGGYKSYYSYEYDYWGQGTQVTVSS | low polyreactivity
22 | QVQLVESGGGLVQAGGSLRLSCAASGITFWYNAMGWYRQAPGKERELVAAITRTGSTNYADSVKGRFTISRDNAKNTVYLQMNSLKPEDTAVYYCAAYLGWPWGYYSWGQGTQVTVSS | high polyreactivity

Row | Sequence | polyreactivity (PSR sort gate)
23 | QVQLVESGGGLVQAGGSLRLSCAASGLIYSYYVMGWNRQAPGKERELVPAINESGGRTYYADSVKGRFTISRDNAKNTVYLEMNSLKPEDTAVYYCAASVLNKIQGYRDYYCGQGTQVTVSS | low polyreactivity
24 | QVQLVESGGGLVQAGGSLRLSCAASGSIFNANAMGWYRQAPGKERELVARITRGGRTNYADSVKGRFTISLDNAKNSVYLQMNSLKPEDTAVYYCAAVYYVGFPHKYDYWGQGTQVTVSS | low polyreactivity
25 | QVQLVESGGGLVQAGGSLRLSCAASGIIFSYYAMGWYIQAPGKERELVAVINSGGSTYYADSVKGRFTISRDNAKNTVYLQMNSLKPEDTAVYYCAATIFVKFYYWGQGTQVTVSS | low polyreactivity
26 | QVQLVESGGGLVQAGGSLRLSCAASGSIFGFYAMGLYIQEPGKERELVAAITSGDSTHYADSVKGRFTISRDNAKNTVYLQMNSLKPEDTAVYYCATEYLYVDFFIRYDYWGQGTQVTVSS | low polyreactivity
27 | QVQLVESGGGLVQAGGSLRLSCAASGRIFPVYAMGWYRQATGKERELVATISYSGSSTYYADSVKGRFTISRDNAKNTVYLQMNSLKPEDTAVYYCNADAFGPPGVQYYYWGQGTQVTVSS | low polyreactivity
28 | QVQLVESGGGLVQAGGSLRLSCAASGIIFGYNVMGWYRQAPGKERELVAAIRYSGGSKYYADSVKGRFTISRDNAKNTVYLQMNSLKPEDTAVYYCAKAYRAAPRESYDYWGQGTQVTVSS | high polyreactivity
29 | QVQLVESGGGLVQAGGSLRLSCAASGSPFNYYAMGSYRQAPGKERELVAGINRGGSTNYADSVKGRFTISRDNAKNTVYLQMNSLKPEDTAVYYCAVRAYRWRSTLGLYYWGQGTQVTVSS | high polyreactivity
30 | QFQLVESGGGLVQAGSRLRLICAASGSTFKYYTMGWYRQAPGKERELVATIRGSGTTYADSVKGRFTISRDNAKNTVYLQMNSLKPEDTAVYYCARLPPADMDYWGQATQVTVSS | low polyreactivity
31 | QVQLVESGGGLVQAGGSLRLSCDDSGGIFQENAMGWYTQAPGKERELVATSTRSTGSTYYADSVKGRFTISRDTAKNTVYLQMNSLKPEDTAVYYCAARRLSQYYRYAYKYDYWGQVTQVTVSS | high polyreactivity
32 | QVQLVESGGGLVQAGGSLRLSCAASGRTFKYYAMGWYRQAPGKERELVAAISWNGGSTYYADSVKGRFTISRDNAKNTVYLQMNSLKPEDTAVYYCAARYYAAGIGSRYDYWGQGTQVTVSS | high polyreactivity
33 | QVQLGESGGGFFKAGASLRVICAASGRTFRRNAKGWYRQSPGTERELVAAITCGGSTNYADSVKGRFTISRDNENNTVYLQMNSLKPEDTAVYYCNADSVWGWYTYDYWGQGTQVTVSS | high polyreactivity
34 | EEELVESGGGLVQAGGSLRLSCAASARISTVMLWDWYRQAPGKDRELVAAITKSGGSTYYADSVKGRFTISRDNAKNTVYLQMNSLIPEDTAVYYCAADRYAILFYAEDYWGQGTQETVSS | low polyreactivity
35 | QVQLVESGGGLVQAGGSLRLSCAASVRTFEPNAMGWYRQAPGKERELVAAISSSDGSTYYADSVKGRFTISRDNAKNTVYLQMNSLKPEDTAVYYCAADAGYLYDWPYNYYYWGQGTQVTVSS | low polyreactivity
36 | QVQLVESGGGLVQAGGSLRLSCAASGFIFGGYAMGWYRQAPGKERELVAAISRSGGSTYYADSVKGRFTISRDNAKNTVYLQMNSLKPEDTAVYYCAAKFWPEDHRMDYWGQGTQVTVSS | low polyreactivity
37 | QVQLVESGGGLVQAGGSLRLSCAASGYTFVKYAMGWYRQAPGKERELVASISWSGGRTYYADSVKGRFTISRDNAKNTVYLQMNSLKPEDTAVYYCATRPTWYSYDYWGHGTQVTVSS | high polyreactivity
38 | QVQLVESGGGLVQAGGSLRLSCAASGLIFLYYAMGWNRQAPGKERELVAAIRTNYADSVKGRFTISRDNAKNTVYLQMNSLKPEDTPVYYCAAESCQTPTSAFDYWGQGTQVTVSS | low polyreactivity
39 | QVQLVESGGGLVQAGGSLRLSCAASGRTIQYYAMGWYRQAPGKERELVAAITRSGGRTYYADSVKGRFTISRDNAKNTVYLQMNSLKPEDTAVYYCARVSSSVHVDYDYWGQGTQVTVSS | high polyreactivity
40 | QVQHVESGGGLVQAGGSLRLSCAASGRTFKGYAMGWYRQAPGKESQLVAGISTGGNTNYADSVMGRFTISRDNAKNTVYLQMNSLKPEDTAVYYCNAVYRGFTHYTGYEYWGQGTQVTVSS | high polyreactivity
41 | QGQLVESGGGLVQAGGSLRLSSAASGSIFFQNVMGWYRQAPGKERELVAAFSSSGDSTYYADSVKGRFTISRDNAKNTVYLQMISLKPEDTAVYYCAAEPEYVSGPYDYWGQGTQVTVSS | low polyreactivity
42 | QVQLGESGGGLVQAGGSLRLSCAASGFIFCYYAMGWYRQAPVKERELVAAITSGGRTYYSESVKGRFTISLDNAKNTFYLQMNSMKPEDTSVYYCNVVLRSVVSGDYWGQGTQVTVSS | high polyreactivity
43 | QVQLVESGGGLVQAVGSLRLSCAASGFTYSPNAMGWYRQAPGKERELVATISWNGGRTHYADSVKGRFTISRDNAKNTVYLQMNSLKPEDTAVYDCNVVRATGRYYYWGQGTQVTVSS | high polyreactivity
